Assay: soluble on expression in E. coli; label from the status in PepcDB or PDB records

Sequence | soluble on expression in E. coli
MIKIYNGDKLTRQPFFIKLINYLQIHDDVTLRQIKRNFADTEHLERSIEDYVQAGYVLRENKHYYNAFELLENLDGLTLDSQIFVDDQSSIYQDLLALTFETYLSNQTNAALIIEKTDISRDALTLSNYFFKLNENFPLSRKQKPLYHLLGDVNPNYALKYMTTFLLKFWGKDVVKQKRPDIFVQALVLLGYLEQVGKQSYCLKMTFDKEKLIFAS | not soluble
SDTMKVETIGKEIIKPSATTPTDLSTLQLSIMDILMPPVYAVAFLFYTKDDLISQEQTSHTLKTSLSEILTKFHPLAGRVNGVTIKSTDEGAVFVEARVDNCDLSGFLRSPDTESLKQLLPVDDEPAPTWPLLLVKATYFRCGGMAIGLCISHRLADAASLSIFLQAWAATARGESDLVASPDFCSTKLYPAANEAIKIPGEVVNRTSVTKRFVFVASKIEELRNKVASDVVPRPTRVQSVTSLIWKCVVTASTDTIREKALFQPANLRTKIPSLLSENQIGNLLFNSLILDGKAGMDIVETVKELQKRAEDLSGLVQDEEGSSMTIGWRLFGEIINSKFNREDHDMHSVTSWCKIPLYDACFGWGSPVWVAGSVSPNLDYVTVLIDSKDGQGIEAWVTLPQENMLLLEQSTELLAFASPNPSVLI | soluble
MWRKLTIIVVLLCLAGYAAYEQFGKSDQAAQGEQEKSEAAMKEMIASNGIEIGKSAPDFELTKLDGTNIKLSDLKGKKVILNFWATWCGPCQQEMPDMEAFYKKHKDNVEILAINYTPSEKGGGVEKVSNFAKEKGITFPILLDKNIDVTTAYKVITIPTSYFIDTKGVIQDKFIGPMTQKEMEKRIAKLK | not soluble
SLHRLNKKAGDYGEKAAEIYLKKSGYTILNRNFRCFLGEVDIIAKNKDYITFVEVKSRWSDTYGLPCEAVNYRKKLKIYRTAKYYIASKSLINYNFRFDVIEVILNHQNDSYDLKFIENAFQI | soluble
MSLLPRTTSVKPGEKFDVIIVGLGPAAYGAALYSARYMLKTLVIGETPGGQLTEAGIVDDYLGLIEIQASDMIKVFNKHIEKYEVPVLLDIVEKIENRGDEFVVKTKRKGEFKADSVILGIGVKRRKLGVPGEQEFAGRGISYCSVADAPLFKNRVVAVIGGGDSALEGAEILSSYSTKVYLIHRRDTFKAQPIYVETVKKKPNVEFVLNSVVKEIKGDKVVKQVVVENLKTGEIKELNVNGVFIEIGFDPPTDFAKSNGIETDTNGYIKVDEWMRTSVPGVFAAGDCTSAWLGFRQVITAVAQGAVAATSAYRYVTEKKGKK | soluble
MTPDFQIVTQRLQLRLITADEAEELVQCIRQSQTLHQWVDWCHALFSQQEAEQFIQATRLNWVKAEAYGFGVFERQTQTLVGMVAINEFYHTFNMASLGYWIGDRYQRQGYGKEALTALILFCFERLELTRLEIVCDPENVPSQALALRCGANREQLAPNRFLYAGEPKAGIVFSLIP | soluble
MSLADIFDFPRDARNVARADGKEADMGGEAPQTMLMRPQGVPDQVWNAVLSVDRMRRLKGMTYREIPVPNSMANFGIGVALECDETYASGWIMILYSLKFREDWHSHWRCVAFASLPLPDKEDDCLTPGMYWDMMMERLNPNDSEHVSGTVTVTQNTAFGHDPDVPRVGCEIRVSWTPLDYADGGLDAGSQVGQWASFLRSMTQSEEEGHHHHHH | soluble
MGSDKIHHHHHHMLIVREFSNRFQQMSGMPINSNETKERLKAAGIDINSKQYRAVMSEMSRDGGGGYTTISAIKKRMSRYDKDGDWINPRTGLAGLLVTDKNCASKNRIVSISESIMDEMFESTKKEFFMENGVHNGDTTNRSEIYQKLYQQTEKNDRLAAGYTLEEYERQYWQAFTDAVKVADPKWEAGKPIMPGVLDRITSKSIDALLVKSGSQLIRKSFERMI | not soluble
MSKDEILKLGREEFFKSVKMEYRPYFEPYETPESVYPDGSINIDCTCLHSALAHRCGYLIRDALVCFNASKTTPRGLDCEKEFVAHAICTEEANNKS | not soluble
MLSFRNWWAREDSNPRPPGYEPGALPTELRAHTAIRLYSNKTPLSRSVISMKKDPIKEMLVKYPRILVIKAALKILKDGNKIDRERIEKTIVKIMTKKEG | not soluble
MSLEKPKYKRIVLKLSGEALAGEQGNGINPTVIQSIAKQVKEIAELEVEVAVVVGGGNLWRGKTGSDLGMDRATADYMGMLATVMNSLALQDSLETLGIQSRVQTSIEMRQVAEPYIRRKAIRHLEKKRVVIFAAGTGNPYFSTDTTAALRAAEIEADVILMAKNNVDGVYNADPRKDESAVKYESLSYLDVLKDGLEVMDSTASSLCMDNDIPLIVFSIMEEGNIKRAVIGESIGTIVRGKEGHHHHHH | soluble
GLSAAQRQVVASTWKDIAGSDNGAGVGKECFTKFLSAHHDMAAVFGFSGASDPGVADLGAKVLAQIGVAVSHLGDEGKMVAEMKAVGVRHKGYGNKHIKAEYFEPLGASLLSAMEHRIGGKMNAAAKDAWAAAYADISGALISGLQS | soluble
MSEEDWPSPKFREHVIQRLEPELARNRQNAPNLPVPGDARQVEEYVFAKCMSKDEYMRTIAKVINAINCNSKSAAVPSVLQPSQFHSPPCTTAGNTPAGGTPGYRAPVPPDPQPTSAQARNPPVTVATTQASTTPSAPNPPGGLPAPSASATAAVAAAVASFPSPDTSIRPGGQITPGSQAPGGGPTPAPNVPFPNGSSQMNGGPAMGQPPPQMGAPNMGGPPNGYGGYGMMNGPPGSGAPMGGNPYNQQIKKDMDQARPWDPSAHMYQQQPQWGAMPPQQPHGYPGRPMNGQGATPTGPSSVLESLINQPQQYPGHHNQMGPPGDRNVAAQRAAAQQQQQQQQQQQQQRPGMVPNQGMMSSEDQTVYSAKLRNMRGSCDSLRTRARQCRHEGNHEAAHKLEVMLSVLEGKRVVSLEYLNHLEMWIARKQDFLNIAPMSQNQNHMGMNDPMMNGEHAMLGNGQVPNPYGGHPGYGHQQYMGPPPPHMQMHQPPMWHQQQHQQQQRMMPQDHMMMQGGGGPVHGMYRGDMGHDPMTSPVNNHRHAPYPNPAAMRNNMRMPNGPGPIGRDRNSMSGSSMSGPSSGAPSMNPMGTPNQKMGTPGSMGGMSGLDDLNYDDFLPNPTPIDALQPTLHVGQNSMNAGPPVQRSNLNETARKELQILDARFEIDPNHQRHDANHIIVVCKIRNQQFPPLRLVVPTTYPAGNVTVDRAVIDLDAYLYDDLQNSVYERLSRPGLSSITDYLNAWEEQVNQYQNQTSGGLDVAFNVGNDFFYDNLNL | not soluble
MITTRLHGRLGNQMFQYAAARGLAARLGTQVALDTRLAESRGEGVLTRVFDLDLAQPDQLPPLKGDGLLRHGAWRLLGLAPRFRREHGLGYNAAIETWDDGTYLHGYWQSERYFAHIAARIRADFAFPAFSNSQNAEMAARIGDTDAISLHVRRGDYVALAAHTLCDQRYYAAALTRLLEGVAGDPVVYLFSDDPAWARDNLALPVQKVVVDFNGPETDFEDMRLMSLCRHNIIGNSSFSWWAAWLNAHPGKRIAAPASWFGDAKLHNPDLLPPDWLKIEVLEHHHHHH | not soluble
MTDRYIAFANSPVGRRLVGAVGLPSPLRLERWQAGRVRPVDGPLVIGGSGALAEAVLPFAGKLTDAVFAAVDGQFELPRWTAEHSPRAKAVLFDASGLTRFEQLVALRDFFQPVLKGLDKCPKVVVLGRPPESLKDPVTASVQRSLEGFTRSLGKEIRRGGNVQLLYVGKGAEDQLEGALRFFLSPKSAYVSGQVIRLAANSAQVHDWSKPLAGQRALVTGAARGIGAAIAETLARDGAEVVLLDVPPAREALEGLAARLGGRAVALDICAADAGQQLVEALPEGVDIVVHNAGITRDKTLAKMSSDFWNSVINVNLNAPQVLTQALLDGGKLHDNGRVVLLASISGIAGNLGQSNYAVSKAGLIGLAQAWAPALGKRGITINAVAPGFIETQMTAAIPLTIREAGRRMNSMSQGGLPQDVAETVAWFAQPSSGAVSGQVL | not soluble
MSLEAIVFDRSEPENVSVKVLDQLLLPYTTKYVPIHTIDDGYSVIKSMQVRGAPAIAIVGSLSVLTEVQLIKHNPTSDVATLYSLVNWESTKTVLNKRLDFLLSSRPTAVNLSNSLVEIKNILKSSSDLKAFDGSLYNYVCELIDEDLANNMKMGDNGAKYLIDVLQKDGFKDEFAVLTICNTGSLATSGYGTALGVIRSLWKDSLAKTDK | soluble
MPFPFGKSHKSPADIVKNLKESMAVLEKQDISDKKAEKATEEVSKNLVAMKEILYGTNEKEPQTEAVAQLAQELYNSGLLSTLVADLQLIDFEGKKDVAQIFNNILRRQIGTRTPTVEYICTQQNILFMLLKGYESPEIALNCGIMLRECIRHEPLAKIILWSEQFYDFFRYVEMSTFDIASDAFATFKDLLTRHKLLSAEFLEQHYDRFFSEYEKLLHSENYVTKRQSLKLLGELLLDRHNFTIMTKYISKPENLKLMMNLLRDKSRNIQFEAFHVFKVFVANPNKTQPILDILLKNQAKLIEFLSKFQNDRTEDEQFNDEKTYLVKQIRDLKRPAQQEA | soluble
TKRYYKSAFPVRICVIQYEMKKIYSFEEFANQVEYYVDVASDARSDFAVFPEIFTTQLMSFLEERSPSLAVQRITEYTEDYISLFTDLAVKYNVNIIGGSHFVEEEGKIYNIAYLFRRDGTIEKQYKLHITPNERKWWGISAGDQVRVFDTDCGKIAIQICYDIEFPELARIAADKGAKIIFTPFCTEDRQGYLRVRYCSQARAVENQIYTVISGTVGNLPQTENMDIQYAQSGIFAPSDFEFARDGIVGETNPNIEMVVIGDVDLEILRRQRQNGTVRQLKDRRRDIYHIQYKK | not soluble
MGSDKIHHHHHHMASVYWIPKLRIIPRTKFVTICPITLTLSLSMQYSPNLAHGTLLRRYKRFLADVLLDDGTEITLHCPNTGSMKNCLFPGETVWFSTSNNPKRKYAHTWEQSSTPDKQLIGINTGRANALAEEAINLGVIKELTGYDRLQREVKYGEENSRIDILLSSDTRASCYIEVKSCTLLEEGSTSGRGYFPDSVTVRGQKHLRELIHMVKQGHRAVLLFVVQHSGINSVSPARHIDVAYSELFTQALDAGVEVLAYQTQMSPQESQILTSCPVIT | not soluble
PDPNRFDRDRLFNAVSRGVPEDLAGLPEYLSKTSKYLTDSEYTEGSTGKTCLMKAVLNLKDGVNACILPLLQIDRDSGNPQPLVNAQCTDDYYRGHSALHIAIEKRSLQCVKLLVENGANVHARACGRFFQKGQGTCFYFGELPLSLAACTKQWDVVSYLLENPHQPASLQATDSQGNTVLHALVMISDNSAENIALVTSMYDGLLQAGARLCPTVQLEDIRNLQDLTPLKLAAKEGKIEIFRHILQREFS | soluble
MKVSQVFISAISVFGLATSVNAQNASNTTSNAAPALHAQNGQLLNAGVVGAAVGGALAFLI | soluble
KTNRRSETNIIRFNNSIFSAAVDYLNEMYNKQLGSICEPLINAYADVEQESPRNKQQGYVKVEFLEPDEEHDYTEQTLISLGMEVEHLLQSGVKLNDIAILVRKNKSIPRIADYFDKQLNYKIVSDEAFRLDASLAICMMLDALRYLSDPENRIVKAQLATNYQLQILHSEYDLNSLLLHKAEELFPPAFLERMAELRLMPLYELLEELFSLFELHRIEQQDAYLFAFFDAVTDYLQSHSSDPDSFIRYWNETLSGKTIPSGEVEGIRIFSIHKSKGLEFHTVLLPFCDWKLENETNNQLVWCVPQEAPFNELDIVPVNYSSAMAESVYRTDYLHERLQLWVDNLNLLYVAFTRAGKNLIIWSRKGQRNTMA | not soluble

From the DeepSol protein solubility set
